Test results taken from patent publication US10562947B2, “Compositions and methods for preventing or treating diseases, conditions or processes characterized by aberrant fibroblast proliferation and extracellular matrix deposition” (MOERAE MATRIX, INC., priority 2011, dated 2020).
Where a SMILES comes first, the peptide text is derived from it.

What was measured:
Assay in all cases: Kinase Profiling Assay
Type in all cases: biochemical
Txk(h) = target: T1, Txk(h) (Homo sapiens, UniProt P42681); settings: 100 μM peptide
T1 sequence (P42681 1-527): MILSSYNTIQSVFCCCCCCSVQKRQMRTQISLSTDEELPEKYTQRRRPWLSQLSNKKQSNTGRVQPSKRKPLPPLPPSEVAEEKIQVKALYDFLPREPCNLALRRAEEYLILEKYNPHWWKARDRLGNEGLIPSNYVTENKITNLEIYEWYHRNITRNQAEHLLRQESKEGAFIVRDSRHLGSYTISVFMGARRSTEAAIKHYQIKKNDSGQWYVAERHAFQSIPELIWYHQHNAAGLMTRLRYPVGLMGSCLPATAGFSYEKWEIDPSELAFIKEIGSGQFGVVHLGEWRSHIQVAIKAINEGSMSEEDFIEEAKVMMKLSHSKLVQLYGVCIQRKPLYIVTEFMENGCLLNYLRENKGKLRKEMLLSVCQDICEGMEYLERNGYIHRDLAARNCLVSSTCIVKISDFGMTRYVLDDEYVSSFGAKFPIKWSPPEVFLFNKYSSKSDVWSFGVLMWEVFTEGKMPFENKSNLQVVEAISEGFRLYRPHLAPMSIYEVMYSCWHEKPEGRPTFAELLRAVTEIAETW
In short: (§1)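 Specificity of the MK2-directed peptides is examined by measuring activity of 266 human kinases, every determination performed in duplicate.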

JNK3(h) = JNK3(h) (Homo sapiens, UniProt P53779); settings: 100 μM peptide
Chain of JNK3(h) (P53779 whole entry): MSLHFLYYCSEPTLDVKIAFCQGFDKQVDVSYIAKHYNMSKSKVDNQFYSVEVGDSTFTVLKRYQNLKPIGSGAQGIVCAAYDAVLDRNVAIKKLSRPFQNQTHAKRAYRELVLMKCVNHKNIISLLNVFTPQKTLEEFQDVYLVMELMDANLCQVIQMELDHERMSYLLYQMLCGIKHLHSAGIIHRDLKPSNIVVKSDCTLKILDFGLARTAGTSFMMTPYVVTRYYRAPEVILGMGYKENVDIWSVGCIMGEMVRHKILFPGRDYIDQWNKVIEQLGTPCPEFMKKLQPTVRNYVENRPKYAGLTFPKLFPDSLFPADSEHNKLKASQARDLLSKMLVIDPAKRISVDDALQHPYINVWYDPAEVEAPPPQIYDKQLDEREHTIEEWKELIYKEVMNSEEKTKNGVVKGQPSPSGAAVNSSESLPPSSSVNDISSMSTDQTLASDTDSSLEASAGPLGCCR
In short: as §1

MST2(h) = target: T2, MST2(h) (Homo sapiens, UniProt Q13188); settings: 100 μM peptide
T2 sequence (Q13188 1-491): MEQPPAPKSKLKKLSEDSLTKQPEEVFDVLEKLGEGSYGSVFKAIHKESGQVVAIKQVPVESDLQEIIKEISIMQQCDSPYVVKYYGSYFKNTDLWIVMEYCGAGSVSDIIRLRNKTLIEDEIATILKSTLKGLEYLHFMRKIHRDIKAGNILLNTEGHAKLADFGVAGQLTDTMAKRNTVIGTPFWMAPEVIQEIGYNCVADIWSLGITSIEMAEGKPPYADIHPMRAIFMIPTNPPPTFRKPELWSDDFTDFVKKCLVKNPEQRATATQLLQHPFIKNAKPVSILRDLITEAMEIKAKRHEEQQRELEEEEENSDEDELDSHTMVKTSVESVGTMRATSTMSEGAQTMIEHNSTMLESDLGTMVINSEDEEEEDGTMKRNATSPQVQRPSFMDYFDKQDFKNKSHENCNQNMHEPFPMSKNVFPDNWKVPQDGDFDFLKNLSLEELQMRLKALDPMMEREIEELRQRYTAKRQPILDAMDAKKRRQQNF
In short: as §1

Hck(h) activated = target: T3, Hck(h) activated (Homo sapiens, UniProt P08631); settings: 100 μM peptide
T3 construct: purchased Millipore
T3 sequence (P08631 whole entry): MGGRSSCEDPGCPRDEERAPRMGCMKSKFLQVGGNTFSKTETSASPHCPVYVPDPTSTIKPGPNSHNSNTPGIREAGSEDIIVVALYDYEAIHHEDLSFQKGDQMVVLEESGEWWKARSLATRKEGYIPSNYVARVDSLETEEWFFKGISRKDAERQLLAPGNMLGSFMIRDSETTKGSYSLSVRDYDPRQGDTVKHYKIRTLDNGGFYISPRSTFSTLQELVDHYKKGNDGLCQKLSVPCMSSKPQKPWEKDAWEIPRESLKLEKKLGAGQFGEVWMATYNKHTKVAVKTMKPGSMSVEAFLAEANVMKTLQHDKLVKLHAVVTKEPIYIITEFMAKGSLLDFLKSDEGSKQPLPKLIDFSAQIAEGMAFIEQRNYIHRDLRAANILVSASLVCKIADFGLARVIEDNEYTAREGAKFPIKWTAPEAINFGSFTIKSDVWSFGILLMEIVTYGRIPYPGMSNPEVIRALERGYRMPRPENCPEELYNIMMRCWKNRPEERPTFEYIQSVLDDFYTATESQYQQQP
In short: as §1

Rsk4(h) = Rsk4(h) (Homo sapiens, UniProt Q9UK32); settings: 100 μM peptide
Chain of Rsk4(h) (Q9UK32 whole entry): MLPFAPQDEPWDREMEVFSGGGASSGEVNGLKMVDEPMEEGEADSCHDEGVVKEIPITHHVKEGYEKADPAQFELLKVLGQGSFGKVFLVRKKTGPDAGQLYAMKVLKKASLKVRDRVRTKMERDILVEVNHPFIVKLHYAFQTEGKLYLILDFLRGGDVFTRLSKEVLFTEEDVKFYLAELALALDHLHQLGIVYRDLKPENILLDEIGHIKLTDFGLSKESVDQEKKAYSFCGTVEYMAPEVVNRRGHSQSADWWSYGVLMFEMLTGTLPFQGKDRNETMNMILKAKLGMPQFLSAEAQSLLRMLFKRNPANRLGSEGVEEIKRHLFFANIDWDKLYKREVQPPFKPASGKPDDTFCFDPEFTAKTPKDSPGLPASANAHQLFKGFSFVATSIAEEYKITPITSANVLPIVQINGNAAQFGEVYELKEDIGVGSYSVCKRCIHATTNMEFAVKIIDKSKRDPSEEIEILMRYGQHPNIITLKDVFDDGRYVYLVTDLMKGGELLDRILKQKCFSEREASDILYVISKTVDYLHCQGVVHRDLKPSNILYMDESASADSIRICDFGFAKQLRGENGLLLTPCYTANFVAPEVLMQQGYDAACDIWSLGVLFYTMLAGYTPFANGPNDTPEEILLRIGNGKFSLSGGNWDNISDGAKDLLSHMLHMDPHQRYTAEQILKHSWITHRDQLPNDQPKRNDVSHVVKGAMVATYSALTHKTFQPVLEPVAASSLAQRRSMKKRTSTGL
In short: as §1

Hck(h) = target: T4, Hck(h) (Homo sapiens, UniProt P08631); settings: 100 μM peptide
T4 construct: purchased Millipore
T4 sequence (P08631 whole entry): as the sequence (P08631 whole entry) above
In short: as §1

CDK3/cyclinE(h) = CDK3/cyclinE(h) (Homo sapiens, UniProt Q00526); settings: 100 μM peptide
Chain of CDK3/cyclinE(h) (Q00526 whole entry): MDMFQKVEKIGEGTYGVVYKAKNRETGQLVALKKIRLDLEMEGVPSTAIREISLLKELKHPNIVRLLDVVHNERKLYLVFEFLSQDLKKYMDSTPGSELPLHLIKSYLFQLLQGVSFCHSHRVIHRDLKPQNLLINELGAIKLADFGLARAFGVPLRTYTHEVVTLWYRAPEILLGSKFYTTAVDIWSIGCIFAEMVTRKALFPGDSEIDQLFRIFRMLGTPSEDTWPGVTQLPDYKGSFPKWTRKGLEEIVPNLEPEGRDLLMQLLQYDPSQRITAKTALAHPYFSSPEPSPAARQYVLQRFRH
Chain of CDK3/cyclinE(h) (P24864 whole entry partner): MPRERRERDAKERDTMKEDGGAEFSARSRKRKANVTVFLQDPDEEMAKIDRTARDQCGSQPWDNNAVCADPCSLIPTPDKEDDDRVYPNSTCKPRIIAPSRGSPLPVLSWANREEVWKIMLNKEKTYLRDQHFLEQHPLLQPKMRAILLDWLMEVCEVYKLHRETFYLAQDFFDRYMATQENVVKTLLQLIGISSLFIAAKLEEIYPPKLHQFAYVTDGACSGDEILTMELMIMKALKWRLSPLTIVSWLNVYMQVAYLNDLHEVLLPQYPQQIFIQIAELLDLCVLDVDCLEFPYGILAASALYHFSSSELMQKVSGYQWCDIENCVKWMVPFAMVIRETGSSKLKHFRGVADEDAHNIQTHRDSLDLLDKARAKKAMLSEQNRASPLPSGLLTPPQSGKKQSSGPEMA
In short: as §1

TrkA(h) = TrkA(h) (Homo sapiens, UniProt P04629); settings: 100 μM peptide
In short: as §1

CaMKI(h) = CaMKI(h) (Homo sapiens, UniProt Q14012); settings: for CaMKI(h) % activity: 100 μM peptide
Chain of CaMKI(h) (Q14012 whole entry): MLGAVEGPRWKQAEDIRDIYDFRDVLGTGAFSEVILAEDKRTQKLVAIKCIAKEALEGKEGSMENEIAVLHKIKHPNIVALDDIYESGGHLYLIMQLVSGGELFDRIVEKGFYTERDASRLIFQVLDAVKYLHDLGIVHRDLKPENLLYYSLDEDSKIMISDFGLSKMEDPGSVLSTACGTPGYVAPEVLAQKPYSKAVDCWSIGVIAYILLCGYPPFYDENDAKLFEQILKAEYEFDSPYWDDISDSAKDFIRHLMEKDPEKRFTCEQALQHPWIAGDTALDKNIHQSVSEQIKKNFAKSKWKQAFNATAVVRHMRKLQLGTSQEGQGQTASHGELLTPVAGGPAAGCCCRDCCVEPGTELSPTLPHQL
In short: as §1

Syk(h) = Syk(h) (Homo sapiens, UniProt P43405); settings: 100 μM peptide
In short: as §1

Fyn(h) = Fyn(h) (Homo sapiens, UniProt P06241); settings: 100 μM peptide
Chain of Fyn(h) (P06241 whole entry): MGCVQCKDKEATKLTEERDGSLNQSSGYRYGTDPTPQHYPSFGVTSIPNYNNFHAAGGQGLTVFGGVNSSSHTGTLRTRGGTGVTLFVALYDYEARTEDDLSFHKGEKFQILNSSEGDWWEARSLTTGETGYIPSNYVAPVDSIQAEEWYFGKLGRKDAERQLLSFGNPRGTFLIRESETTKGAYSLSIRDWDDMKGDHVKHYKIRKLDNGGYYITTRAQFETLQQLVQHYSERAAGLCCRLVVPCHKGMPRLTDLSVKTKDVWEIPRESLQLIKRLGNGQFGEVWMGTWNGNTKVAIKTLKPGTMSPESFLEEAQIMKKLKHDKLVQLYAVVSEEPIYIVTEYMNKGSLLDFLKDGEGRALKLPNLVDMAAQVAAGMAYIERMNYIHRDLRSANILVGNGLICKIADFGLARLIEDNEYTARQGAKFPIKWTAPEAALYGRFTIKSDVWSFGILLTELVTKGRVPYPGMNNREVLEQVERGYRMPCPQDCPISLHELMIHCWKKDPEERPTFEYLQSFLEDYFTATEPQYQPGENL
In short: as §1

mTOR(h) = mTOR(h) (Homo sapiens, UniProt P42345); settings: 100 μM peptide
In short: as §1

CaMKIIγ(h) = CaMKIIγ(h) (Homo sapiens, UniProt Q13555); settings: 100 μM peptide
In short: as §1

MSSK1(h) = MSSK1(h) (Homo sapiens, UniProt Q9UPE1); settings: 100 μM peptide
Chain of MSSK1(h) (Q9UPE1 whole entry): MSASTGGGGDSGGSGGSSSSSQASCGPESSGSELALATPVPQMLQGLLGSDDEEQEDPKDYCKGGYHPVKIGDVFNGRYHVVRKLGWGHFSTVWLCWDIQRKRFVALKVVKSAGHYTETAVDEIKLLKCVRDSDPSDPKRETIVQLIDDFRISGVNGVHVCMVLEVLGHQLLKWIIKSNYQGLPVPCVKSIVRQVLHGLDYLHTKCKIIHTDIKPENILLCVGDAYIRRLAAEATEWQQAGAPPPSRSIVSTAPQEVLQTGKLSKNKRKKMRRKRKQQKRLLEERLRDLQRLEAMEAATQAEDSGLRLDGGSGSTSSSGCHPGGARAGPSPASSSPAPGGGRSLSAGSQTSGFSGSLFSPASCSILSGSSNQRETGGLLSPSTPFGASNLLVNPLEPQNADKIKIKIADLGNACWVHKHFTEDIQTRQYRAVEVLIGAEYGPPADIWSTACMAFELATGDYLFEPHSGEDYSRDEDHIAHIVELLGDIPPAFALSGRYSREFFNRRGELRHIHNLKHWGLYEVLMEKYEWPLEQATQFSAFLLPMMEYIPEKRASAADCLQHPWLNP
In short: as §1

NEK3(h) = target: T5, NEK3(h) (Homo sapiens, UniProt P51956); settings: 100 μM peptide
T5 sequence (P51956 1-506): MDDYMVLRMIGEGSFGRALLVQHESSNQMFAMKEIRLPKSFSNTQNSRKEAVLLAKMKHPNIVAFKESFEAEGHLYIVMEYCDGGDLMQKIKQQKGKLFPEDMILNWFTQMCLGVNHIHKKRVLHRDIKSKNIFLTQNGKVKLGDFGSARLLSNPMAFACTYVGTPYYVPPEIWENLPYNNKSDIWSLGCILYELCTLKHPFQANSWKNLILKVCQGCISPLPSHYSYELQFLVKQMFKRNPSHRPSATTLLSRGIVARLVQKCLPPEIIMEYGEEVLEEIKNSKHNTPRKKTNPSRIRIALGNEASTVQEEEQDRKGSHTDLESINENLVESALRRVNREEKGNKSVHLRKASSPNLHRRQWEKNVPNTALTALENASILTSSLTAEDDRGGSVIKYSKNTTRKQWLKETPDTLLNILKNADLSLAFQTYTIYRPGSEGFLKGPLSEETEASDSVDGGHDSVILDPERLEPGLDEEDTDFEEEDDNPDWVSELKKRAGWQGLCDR
In short: as §1

Ret(V804M)(h) = target: T6, Ret(V804M)(h) (Homo sapiens, UniProt P07949, V804M); settings: 100 μM peptide
T6 construct: purchased Millipore (IC50 Profiler Express service)
In short: as §1

PKBγ(h) = PKBγ(h) (Homo sapiens, UniProt Q9Y243); settings: 100 μM peptide
Chain of PKBγ(h) (Q9Y243 whole entry): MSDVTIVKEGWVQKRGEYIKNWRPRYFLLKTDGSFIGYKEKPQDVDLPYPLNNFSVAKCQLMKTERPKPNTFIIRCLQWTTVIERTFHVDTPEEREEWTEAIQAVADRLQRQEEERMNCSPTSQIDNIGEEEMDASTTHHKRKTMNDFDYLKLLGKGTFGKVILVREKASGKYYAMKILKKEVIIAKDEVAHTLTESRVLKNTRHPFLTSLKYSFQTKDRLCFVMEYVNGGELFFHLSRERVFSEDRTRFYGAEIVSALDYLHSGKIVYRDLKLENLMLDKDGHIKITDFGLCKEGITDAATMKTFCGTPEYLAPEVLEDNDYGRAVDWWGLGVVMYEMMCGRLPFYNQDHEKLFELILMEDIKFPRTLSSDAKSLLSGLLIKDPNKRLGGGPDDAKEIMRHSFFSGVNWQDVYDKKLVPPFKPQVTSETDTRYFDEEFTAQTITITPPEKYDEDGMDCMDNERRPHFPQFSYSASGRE
In short: as §1

Compound	Txk(h) % activity (Txk(h))	JNK3(h) % activity (JNK3(h))	MST2(h) % activity (MST2(h))	Hck(h) activated % activity (Hck(h) activated)	Rsk4(h) % activity (Rsk4(h))	Hck(h) % activity (Hck(h))	CDK3/cyclinE(h) % activity (CDK3/cyclinE(h))	TrkA(h) % activity (TrkA(h))	CaMKI(h) % activity (CaMKI(h))	Syk(h) % activity (Syk(h))	Fyn(h) % activity (Fyn(h))	mTOR(h) % activity (mTOR(h))	CaMKIIγ(h) % activity (CaMKIIγ(h))	MSSK1(h) % activity (MSSK1(h))	NEK3(h) % activity (NEK3(h))	Ret(V804M)(h) % activity (Ret(V804M)(h))	PKBγ(h) % activity (PKBγ(h))	inhibition at 100 µM (CaMKI(h); read-out: inhibition of kinase activity of CaMKI)
HRRIKAWLKKIKALARQLGVAA (Mammalian) [MMI-0500]	10%	171%	2%	67%	29%	78%	8%	24%	−1%	5%	83%	135%	3%	22%	20%	36%	20%	–
KAFAKLAARLYRKALARQLGVAA [MMI-0400]	37%	70%	11%	81%	91%	72%	92%	17%	0%	9%	54%	93%	3%	75%	85%	87%	41%	–
FAKLAARLYRKALARQLGVAA [MMI-0300]	48%	89%	19%	82%	90%	72%	94%	25%	1%	24%	74%	91%	5%	77%	92%	95%	20%	–
YARAAARQARAKALNRQLGVA (Mammalian) [MMI-0200]	98%	90%	–	100%	125%	–	–	–	21%	36%	75%	110%	94%	100%	100%	–	–	–
CC(C)C[C@H](NC(=O)[C@H](C)NC(=O)[C@H](CCCCN)NC(=O)[C@H](C)NC(=O)[C@H](CCCNC(=N)N)NC(=O)[C@H](C)NC(=O)[C@H](CCC(N)=O)NC(=O)[C@H](CCCNC(=N)N)NC(=O)[C@H](C)NC(=O)[C@H](C)NC(=O)[C@H](C)NC(=O)[C@H](CCCNC(=N)N)NC(=O)[C@H](C)NC(=O)[C@@H](N)Cc1ccc(O)cc1)C(=O)N[C@@H](C)C(=O)N[C@@H](CCCNC(=N)N)C(=O)N[C@@H](CCC(N)=O)C(=O)N[C@@H](CC(C)C)C(=O)NCC(=O)N[C@H](C(=O)N[C@@H](C)C(=O)N[C@@H](C)C(=O)O)C(C)C [MMI-0100] (H-YARAAARQARAKALARQLGVAA-OH; N-terminus and C-terminus assumed)	–	–	–	–	–	–	–	–	–	–	–	–	–	–	–	–	–	> 65%
